Columns and labels:
[1] = target: recombinant HA, subtype H3 (A/Wyoming/3/2003(H3N2)) (influenza A virus A/Wyoming/3/2003 …); test: ELISA, coated HA, IgG 5 µg/ml
[2] = target: recombinant HA, subtype H1 (A/New Caledonia/20/99 (H1N1)) (influenza A virus A/New Caledonia/20/99 …, UniProt Q289M7 18-565); test: ELISA, coated HA, IgG 5 µg/ml
[3] = target: T1, recombinant HA, subtype H5 (A/Vietnam/1203/2004 (H5N1)) (influenza A virus A/Vietnam/1203/2004 …, UniProt Q80A26 6-554); test: ELISA, coated HA, IgG 5 µg/ml
[4] = target: T1, recombinant HA, subtype H5 …; test: competition ELISA on coated HA, IgG 10 µg/ml, competitor: phage antibodies
[5] = target: T2, soluble recombinant HA (sHA) of H5N1TV (influenza A virus A/Vietnam/1194/2004 …, UniProt Q6J8F6 17-528); test: immunoblot, reducing SDS-PAGE
[6] = target: full-length HA from isolate A/Vietnam/1194/2004 (H5N1TV) on PER.C6 cells (influenza A virus A/Vietnam/1194/2004 …, UniProt Q80A26 6-554); test: flow cytometry, transfected PER.C6 cells
[7] = target: T2, soluble recombinant HA (sHA) of H5N1TV; test: immunoblot (data not shown)

Row | Binder | OD 492 nm [1] | OD 492 nm [2] | OD 492 nm [3] | residual binding of phage antibody in the presence of the IgG [4] | binding result [5] | flow cytometry signal at 0.1 µg/ml [6] | flow cytometry signal at 1 µg/ml [6] | flow cytometry signal at 10 µg/ml [6] | binding result [7]
1 | CR6272 (antibody, V domains shown) VH: QMQLVQSGAEVKKPGSSVKVSCKASGGTFSSYAITWVRQAPGQGLEWMGGIIGMFGSTNYAQNFQGRVTITADESTSTAYMELSSLRSEDTAVYYCARSTGYYPAYLHHWGQGTLVTVSS VL: QSALTQPRSVSGSPGQSVTISCTGTSSDVGGYNYVSWYQQHPGKAPKLMIYDVSKRPSGVPDRFSGSKSGNTASLTISGLQAEDEADYYCSSYTSSSTHVFGTGTKVTVLG | 0.07 OD 492 nm | 0.81 OD 492 nm | 0.58 OD 492 nm | > 25% | – | – | – | – | –
2 | CR6323 (antibody, V domains shown) VH: EVQLVESGAEVKKPGSSVKVSCKASGGTFSSYGISWVRQAPGQGLEWMGDIIGMFGSTNYAQNFQGRLTITADESTSTAYMELSSLRSEDTAVYYCARSSGYYPAYLPHWGQGTLVTVSS VL: not shown | 0.07 OD 492 nm | 2.32 OD 492 nm | 1.89 OD 492 nm | – | binds | 33.4 | 117 | 445 | –
3 | CR6257 (antibody, V domains shown) VH: QVQLVQSGAEVKKPGSSVKVSCKASGGPFRSYAISWVRQAPGQGPEWMGGIIPIFGTTKYAPKFQGRVTITADDFAGTVYMELSSLRSEDTAMYYCAKHMGYQVRETMDVWGKGTTVTVSS VL: QSALTQPAAVSGSPGQSITISCTGTSSDVGGYNYVSWYQQHPGKAPKLMIYEVSNRPSGVSNRFSGSKSGNTASLTISGLQAEDEADYYCSSYTSSSTYVFGTGTKVTVLG | 0.08 OD 492 nm | 1.93 OD 492 nm | 1.37 OD 492 nm | – | – | 62.1 | 284 | 365 | –
4 | CR6141 (antibody, V domains shown) VH: EVQLVQSGAEVKKPGASVKVSCKASGYTFTGYYVYWVRQAPGQGLEWMGWISAYNGNTNYAQKFQGRVTITADKSTSTAYMELSSLRSEDTAVYYCARSRSLDVWGQGTTVTVSS VL: not shown | – | – | – | – | – | – | – | – | binds
5 | CR6343 (antibody, V domains shown) VH: QVQLVQSGAEVKKPGSSVKVSCKASGVTFSYYAMSWVRQAPGQGLEWMGGISPMFGTTTYAQKFQGRVTITADDSTSTAYMEVRSLRSEDTAVYYCARSSNYYDSVYDYWGQGTLVTVSS VL: QSVVTQPPSESVAPGQTARITCGGHNIGSNSVHWYQQKPGQAPVLVVYDNSDRPSGIPERFSGSNSGNTATLTISRVEAGDEADYYCQVWGSSSDHYVFGTGTKVTVLG | 0.07 OD 492 nm | 1.28 OD 492 nm | 0.76 OD 492 nm | > 25% | – | – | – | – | –
6 | CR6301 (antibody, V domains shown) VH: EVQLVESGGGLVQPGGSLRLSCAASGFTFSIYAMSWVRQAPGKGLEWVSAISSSGDSTYYADSVKGRFTISRDNARNTLYLQMNSLRAEDTAVYYCARAYGYTFDPWGQGTLVTVSS VL: not shown | – | – | – | – | – | – | – | – | binds
7 | CR6296 (antibody, V domains shown) VH: EVQLVETGAEVKKPGASVKVSCKASGYTFTSYYMHWVRQAPGQGLEWMGWINPNSGGTNYAQKFQGRVTMTRDTSISTAYMELSRLRSDDTAVYYCAREGKWGPQAAFDIWGQGTMVTVSS VL: EIVMTQSPGTLSLSPGERATLSCRASQSVSSSYLAWYQQKPGQAPRLLIYDASSRATDIPDRFSGSGSGTDFTLTISRLEPEDFAVYYCQQYGSSLWTFGQGTKVEIKR | – | – | – | – | – | – | – | – | binds
8 | CR6339 (antibody, V domains shown) VH: EVQLVESGAEVKKPGSSVKVSCKASGGIFNSYAISWVRQAPGQGLEWMGGIIAIFHTPKYAQKFQGRVTITADESTNTAYMELRSLKSEDTALYYCARGSTYDFSSGLDYWGQGTLVTVSS VL: QAGLTQPPSVSVAPGQTARITCGGNNIGSKSVHWYQQKPGQAPVLVVYDDSDRPSGIPERFSGSNSGNTATLTISRVEAGDEADYYCQVWDSSSDHVVFGGGTKLTVLG | 0.07 OD 492 nm | – | 0.81 OD 492 nm | > 25% | – | – | – | – | –
9 | CR6307 (antibody, V domains shown) VH: QVQLVQSGGGLVKPGGSLRLSCAASGFTFSSYSMNWVRQAPGKGLEWVSSISSSSSYIYYVDSVKGRFTISRDNAKNSLYLQMNSLRAEDTAVYYCARGGGSYGAYEGFDYWGQGTLVTVSS VL: EIVLTQSPGTLSLSPGERATLSCRASQRVSSYLAWYQQKPGQAPRLLIYGASTRAAGIPDRFSGSGSGTDFTLTISRLEPEDSAVYYCQQYGRTPLTFGGGTKVEIKR | 0.11 OD 492 nm | – | 0.99 OD 492 nm | – | binds | 82.4 | 267 | 485 | –
